CN117180420A (DRAGONBOAT BIOPHARMACEUTICAL SHANGHAI CO LTD, dated 2023)

Target: T1, CD47 on NUGC-4 cells / hCLDN18.2-NUGC-4 cells (human, UniProt Q08722 19-323)
T1 construct: whole, on cells; also called 内源CD47; 人CD47
Assay: flow cytometry, blocking of SIRPα-mFc binding to hCLDN18.2-NUGC-4 cells

T1 sequence (Q08722 19-323): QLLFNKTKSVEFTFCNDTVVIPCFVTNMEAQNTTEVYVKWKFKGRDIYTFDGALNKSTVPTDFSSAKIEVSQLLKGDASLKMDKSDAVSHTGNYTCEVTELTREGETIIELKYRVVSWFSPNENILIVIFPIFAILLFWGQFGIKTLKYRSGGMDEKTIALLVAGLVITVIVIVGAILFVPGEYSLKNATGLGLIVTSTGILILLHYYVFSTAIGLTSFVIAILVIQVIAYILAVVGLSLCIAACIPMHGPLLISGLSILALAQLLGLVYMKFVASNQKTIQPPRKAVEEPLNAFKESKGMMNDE

IC50: 1.98 µg/mL
B1: 抗体1F8 (WO2018075857A1中1F8抗体) (antibody, V domains shown)
VH: KVQLVESGGGLVKPGGSLRLSCAASGFTFSNAWMNWVRQAPGKGLEWVGRIKRKTDGETTDYAAPVKGRFSISRDDSKNTLYLQMNSLKTEDTAVYYCAGSNRAFDIWGQGTMVTVSA
VL: DIVMTQSPDSLAVSLGERATINCKSSQSVLYSSNNRNYLAWYQQKPGQPPKLLINQASTRASGVPDRFSGSGSGTEFTLIISSLHAEDVAIYYCQQYYTPPLAFGGGTKLEIK
